Experimental data: PMC10653834, “Conformational variability of cyanobacterial ChlI, the AAA+ motor of magnesium chelatase involved in chlorophyll biosynthesis” (mBio, 2023)

How the values were obtained:
ChlI [1] = molecular target: T1, ChlI (Nostoc sp. PCC 7120 = FACHB-418, UniProt P58571); assay: cryo-EM structure of hexamers under turnover; format: binding; settings: ADP formed from 10 mM ATP, 50 mM MgCl2, pH 7.5; nucleotide pocket at monomer interfaces
T1 construct: full length, N-terminal His6 tag (kept), pET15b, E. coli LOBSTR; approximately 40 kDa; ATP-induced hexamer (also pentamer); residues 1-13 and 354-374 not modelled

ChlI [2] = molecular target: T1, ChlI; assay: cryo-EM structure of hexamers under turnover; malachite green ATPase assay; format: binding; settings: 10 mM ATP, 50 mM MgCl2, pH 7.5; nucleotide pocket at monomer interfaces; hydrolysis at 37 °C
[3] = molecular target: the molecule itself; assay: cryo-EM structure; 0.5 mg/mL ChlI with 10 mM ATP, 50 mM MgCl2, 0.05% LMNG, 1 mM DTT; no symmetry applied
[4] = molecular target: the molecule itself; assay: mass photometry; ChlI incubated at 0.5 mg/mL in Tris buffer with 10 mM ADP and 50 mM MgCl2; diluted before measurement
[5] = molecular target: the molecule itself; assay: mass photometry; ChlI incubated at 0.5 mg/mL in Tris buffer (20 mM Tris, 200 mM NaCl, pH 7.5) alone or with 50 mM MgCl2, no nucleotide; diluted before measurement

Nc1ncnc2c1ncn2[C@@H]1O[C@H](COP(=O)(O)OP(=O)(O)O)[C@@H](O)[C@H]1O [ADP] was tested, and the “cryo-EM structure of hexamers under turnover” value (ChlI [1]) was “conformation B has ATP bound in four monomers and ADP in two”.

For Nc1ncnc2c1ncn2[C@@H]1O[C@H](COP(=O)(O)OP(=O)(O)OP(=O)(O)O)[C@@H](O)[C@H]1O [ATP], the “cryo-EM structure of hexamers under turnover; malachite green ATPase assay” value (ChlI [2]) was “Conformation A is characterized by ATP molecules bound in five monomers and ADP in one”.

B1: Nostoc sp. PCC 7120 ChlI, motor (AAA+) subunit of magnesium chelatase (enzyme, UniProt P58571 1-374, looked up)
chain: MTPTAQTTASARRVVFPFTAIVGQEEMKLALLLNVIDPKIGGVMIMGDRGTGKSTTIRALADLLPEIPVVANDPFNSDPSDPDLMSDEVRQKSGTGAEIPIEFKKVQMVDLPLGATEDRVCGTIDIEKALSEGVKAFEPGLLAKANRGILYVDEVNLLDDHLVDVLLDSAASGWNTVEREGISIRHPARFVLVGSGNPEEGELRPQLLDRFGMHAEIHTVKEPALRVQIVEQRSEFDQNPPTFLEKYNPEQTALQKKIVEAQKLLPEVKLDYDLRVKISEVCSELDVDGLRGDIVTNRAAKALTAYEGRTEVTVDDIRRVITLCLRHRLRKDPLESIDSGYKVEKVFARIFGVELLEDDSSQKNGAGQIKTGVR
notes: Magnesium chelatase subunit ChlI of Nostoc sp; PCC 7120, gene all0152, amplified from genomic DNA; The printed forward primer places ATG and six His codons before codon 2 (ACT CCA ACA ...); the reverse primer includes the stop codon; Model building counts residues 1-374; Oligomeric state depends on the nucleotide (monomers/dimers without; pentamers and hexamers with ATP and MgCl2); also called …
For B1, the “stoichiometry N” value [3] was 5, the “stoichiometry N” value [4] was 6 and the “stoichiometry N” value [5] was 2.
